Source: article PMC3205447

Key:
[1] = target: TRAF6 (UniProt P70196); assay: anti-TRAF6 IP, TAX1BP1 immunoblot; conditions: reference: wild type; sites S593,S624
[2] = target: TRAF2 (UniProt P39429); assay: anti-TRAF2 IP, TAX1BP1 immunoblot; conditions: reference: wild type; sites S593,S624
Sequence of UniProt P39429 (P39429 whole entry, looked up): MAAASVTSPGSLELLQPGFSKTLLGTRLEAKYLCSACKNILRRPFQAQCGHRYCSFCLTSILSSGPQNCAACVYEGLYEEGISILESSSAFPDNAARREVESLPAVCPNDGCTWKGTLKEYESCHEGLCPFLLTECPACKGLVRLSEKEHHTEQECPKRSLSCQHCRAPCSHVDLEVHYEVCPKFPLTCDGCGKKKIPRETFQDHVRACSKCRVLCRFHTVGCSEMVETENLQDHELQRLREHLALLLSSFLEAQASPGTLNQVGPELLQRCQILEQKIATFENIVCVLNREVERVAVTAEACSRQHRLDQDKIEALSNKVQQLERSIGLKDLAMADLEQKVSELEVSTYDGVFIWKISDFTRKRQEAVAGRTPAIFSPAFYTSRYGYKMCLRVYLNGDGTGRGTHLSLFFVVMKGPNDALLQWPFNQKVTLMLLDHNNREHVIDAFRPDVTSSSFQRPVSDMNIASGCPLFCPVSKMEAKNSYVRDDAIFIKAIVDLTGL

Sequence of UniProt P70196 (P70196 whole entry, looked up): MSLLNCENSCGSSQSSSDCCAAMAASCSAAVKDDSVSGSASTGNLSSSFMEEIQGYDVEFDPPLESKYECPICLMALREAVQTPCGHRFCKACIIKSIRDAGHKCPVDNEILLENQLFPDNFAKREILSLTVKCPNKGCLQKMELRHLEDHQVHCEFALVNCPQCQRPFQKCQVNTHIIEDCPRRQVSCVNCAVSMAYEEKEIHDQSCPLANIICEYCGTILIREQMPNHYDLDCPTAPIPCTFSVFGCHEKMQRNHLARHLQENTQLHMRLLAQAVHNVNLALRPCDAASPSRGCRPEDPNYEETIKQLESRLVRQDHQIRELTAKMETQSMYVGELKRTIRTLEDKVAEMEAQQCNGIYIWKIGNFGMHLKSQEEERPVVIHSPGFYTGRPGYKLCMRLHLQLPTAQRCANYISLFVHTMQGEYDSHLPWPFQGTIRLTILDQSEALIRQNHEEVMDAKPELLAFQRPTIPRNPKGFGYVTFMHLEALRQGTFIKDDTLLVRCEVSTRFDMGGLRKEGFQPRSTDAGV

- binding against the reference [1]: lost
- binding against the reference [2]: lost
Substance: TAX1BP1 (Flag-tagged, amino acids 1–747) 1-747 (from UniProt Q86VP1-2) S593A, S624A
